Measured values: patent publication US20190134195A1

Molecular target: PDL1 on the surface of TC-1 cells (UniProt Q9EP73)
Experiment: flow cytometry, staining of TC-1 tumor cells (background control)

UniProt Q9EP73, sequence (Q9EP73 19-290 limits assumed): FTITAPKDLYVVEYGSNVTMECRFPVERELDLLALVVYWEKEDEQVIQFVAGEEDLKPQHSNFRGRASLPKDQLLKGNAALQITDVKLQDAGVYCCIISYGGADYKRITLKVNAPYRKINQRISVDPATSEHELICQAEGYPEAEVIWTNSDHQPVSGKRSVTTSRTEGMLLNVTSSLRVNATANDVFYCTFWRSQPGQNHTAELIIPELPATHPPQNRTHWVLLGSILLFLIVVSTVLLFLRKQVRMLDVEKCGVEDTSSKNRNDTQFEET

- median fluorescent intensity (MFI): 184
Substance: PE-conjugated isotype control antibody
